Results as given in patent US20190322724.

System: blocking anti-c-Src monoclonal antibodies

| Substance | TIMP-2 tyrosine phosphorylation in HT1080 CM (pulldown, anti-phos-Tyr immunoblot) | TIMP-2 tyrosine phosphorylation in SYF+c-Src CM (pulldown, anti-phos-Tyr immunoblot) |
| --- | --- | --- |
| secreted c-Src (e-Src) in conditioned media of HT1080 human fibrosarcoma cells | TIMP-2 tyrosine phosphorylation was abolished |  |
| secreted c-Src (e-Src) in conditioned media of SYF+c-Src cells |  | TIMP-2 tyrosine phosphorylation was abolished |
